According to publication PMC12578325:

Biological target: Bluetongue virus serotype 1 (BTV-1) outer capsid protein VP2
Assay: Co-IP with anti-NS3 antibody, densitometry of VP2 band
Settings: parent: est. 1.0; read off a plot

With “Bluetongue virus serotype 1 (BTV-1) non-structural glycoprotein NS3, wild type N150A” the ratio to parent (relative fold change) was 0.61.

Work on “Bluetongue virus serotype 1 (BTV-1) non-structural glycoprotein NS3, wild type K196A; K197A; E198A” yielded a ratio to parent (relative fold change) of 0.56.
